The numbers were not newly measured in article PMC12291208, which cites them from elsewhere.

One data set deals with Lys92 (UniProt position 174, RGLAYKYADGK). Particulars: folded protein; Lys92 buried, Lys118 solvent exposed.
The target in the next data set is Lys118 (UniProt position 200, YVYKPKNTHEQ). Conditions: folded protein; Lys92 buried, Lys118 solvent exposed.

Consider “Staphylococcal nuclease (SNase) I92K variant (Staphylococcus aureus (inferred from 'staphylococcal'); I92K)”, for which the pKa (as a rule, the pH at which an ionisable group is half protonated) with Lys92 was 5.2.
For the substance “Staphylococcal nuclease (SNase) N118K variant (Staphylococcus aureus (inferred from 'staphylococcal'); N118K)”, the pKa with Lys118 is given as 10.4.
